Assay results: paper PMC9170038

B1: Eterna 6084857 (Exclusion 6) (ssRNA)
RNA: UCAAAUACUGAGGAUAUAACGACUGAAUCCGCGUUAGAAGGUAGUACAUGAGGAUCACCCAUGUCAACCAGAGG
B2: Eterna 7710140 (Exclusion - Tryptophan A) (ssRNA)
RNA: AGCUCGCAAUCCUCAGCGUCAAAGACGCGUCGAGGACCGGUACGGCCGCCACUCGACAAGAGGAUCACCCUUGUCUAAGCGAGCA
B3: Eterna 7691153 (Same State - Arginine B) (ssRNA)
RNA: AAUGCAUAGUGAAGGAGCGCGAUUUGCAGUGAUGUUGCAAAUUUAAACAAUCUUAUCUUUUCGCAGGUAGGUCGCACUAUGCAUA
B4: Eterna 7690461 (Exclusion - Theophylline A) (ssRNA)
RNA: UAAUUUAUGUCUUUAAUAUAAUAAUCAGAUACCAGUGAUUUAUGACACCCUUGGCAGCUGUAUAGAGUGAUGUUCUUAUACAUAA
B5: Eterna 6411926 (Small Loop Same State NG 1) (ssRNA)
RNA: GUAUUUAGAUAAGGAUAUAAGUCUAUGACAUGAGGAUCACCCAUGUGUGUCUUAGAAGGUAUUUGGGUAAUAUUGUUACAGUAA
B6: Eterna 7627109 (Same State - Theophylline A) (ssRNA)
RNA: CUCCGAGGCUAUACUAUCCGCCUCUGUGAUACCAGAAUACCUAUAUUCCCUUGGCAGCAUCACAUGAGGAUCACCCAUGUGCCAU
B7: Eterna 6079023 (Exclusion 4) (ssRNA)
RNA: UUCACGUCAGGAUAUCCAUAUUUCCGAAAUAACGGUACUUUGGAGAAGGGACAUGAGGAUCACCCAUGUCCUCG
B8: Eterna 6108893 (Exclusion NG 1) (ssRNA)
RNA: GCGUAAAAUGUAGGAUAUGACACAGGAAACUGGUCAGAAGGACAUGAGGAUCACCCAUGUAAAAUGUUCAAGAAUAACUCAUGC
B9: Eterna 6456627 (Same State NG 3) (ssRNA)
RNA: GCGCCUCAGAACAUGAGGAUCACCCAUGUGCUGCGGGCGCCGUAGGAUAUGAUGGUACGCUACCAUCAGAAGGAUGAUGGUACC
B10: Eterna 7652494 (Same State - Tryptophan B) (ssRNA)
RNA: AGUAGACACGCGGCCGCCACUUGAGGAUCACCCAGGUGGUGUGUACUUGAAAACAAGUGCACAUCAAGGACCGGGCGUGUCUACA
B11: Eterna 9759 (Exclusion 4) (ssRNA)
RNA: GUCGAGUGAGGAUAUGGUGAGUAGUGCCUGAGCGCUGCUCACCAGAAGGCACAUGAGGAUCACCCAUGUAUAGC
B12: Eterna 7710839 (Same State - Theophylline A) (ssRNA)
RNA: UAAUAAAUAAAUCCAAGGUGAAGGUCAGAUACCAGCCAGAUAACUGGCCCUUGGCAGCUGAAUAAGCUUGAGGAUCACCCAAGUA
B13: Eterna 7708077 (Same State - FMN A) (ssRNA)
RNA: UUUUACGAGUGAUGUUCGUAAUGUAAUAGUUAGGAUAUCGUUUUUUCGAGAAGGAACUUCGAAGUGAUACGAAAGUAUCGCUUCG
B14: Eterna 15621 (Same State 1) (ssRNA)
RNA: GCAUCACAUGAGGAUCACCCAUGUCUUCGGAGCGGAGGAUAUGGUCACUGUAAACAGUGGCCAGAAGGCUGGAUGC
B15: Eterna 7720377 (Same State - Arginine B) (ssRNA)
RNA: GCCUAGCAGGGAAGGAGCGGCAUAAGCAUAGAUAAUAUGCAGUUAGUGAUGUUAAUACUAUGCCAGGUAGGUCGCCCUGCUAGGC
B16: Eterna 6430991 (Inverted Small Loop Exclusion NG 1) (ssRNA)
RNA: CCUCGCUGUUAGAAGGCACCUUCGGCUUUGGCUUUUGGAGUUGGGCGAUGGUGAGGAUAUAACAUGAGGAUCACCCAUGUUCAA
B17: Eterna 7712973 (Exclusion - Theophylline A) (ssRNA)
RNA: AGACCUCAGUGAUGUUGAGGUAACACUGAUACCAGCGACUUAAUUCGCCCUUGGCAGCAGUCCACCGAGGUAUCUGAUUAGGUCA
B18: Eterna 7684615 (Exclusion - Tryptophan A) (ssRNA)
RNA: AAAAUUGCGGUCGAUAGAACUUUUUGCUUACGAGGACCGGUACGGCCGCCACUCGAGUCAAGUGAUGUUUGAUUUUCUAUUAUUA
B19: Eterna 6424838 (Exclusion NG 2) (ssRNA)
RNA: GCCGGUUCCCUAGGAUAUGUACAUGAGGAUCACCCAUGUGCCUCUAGAGCCGGAACAGGGCAUGUACAGAAGGAGGGUCGACCC
B20: Eterna 7765403 (Exclusion - FMN A) (ssRNA)
RNA: AGUGAUGUAUGGCGGUUUGUCACUUAAAAUCAGGAUAUAUAAACAAAUAGAAGGGAUGGCGGAGUGAUGUUCCGCCGGCCGCCAU
B21: Eterna 7726887 (Same State - Arginine A) (ssRNA)
RNA: AAUACCUGAGUGAUGUUCAGGGAAUCAGAAGGAGCGUCAAUUAUGACAGGUAGGUCGCUGAAGACAUGUGUGUAUACACAUGUCC
B22: Eterna 6457182 (Inverted Small Loop Same State NG 1) (ssRNA)
RNA: CGUCUAUGCAAGAAGGCAUGAAACAUGAGGAUCACCCAUGUCAAAGACAUGAGGAUAUUGCAUAGACGAAAAGUGCGAAAGCAC
B23: Eterna 6429368 (Inverted Exclusion NG 2) (ssRNA)
RNA: AUGUCUUAGUAGAAGGGACAUCGGCUGGUAAGCAUCAUCUCCUUCUCACAUGAGGAUCACCCAUGUCAGGAUAUACUAAGAUAC
B24: Eterna 7692300 (Exclusion - FMN B) (ssRNA)
RNA: UGGGCUGCCUGAGGAUAUAGAGACGAGUGAUGUUCGUGGAUAAGAGCCAGUGAUGUUGGGUUAUUUCUAGAAGGCGGGCGAACUU
B25: Eterna 6443759 (Same State NG 2) (ssRNA)
RNA: AUUAUAAUUGAAGGAUAUCUAUAUCCAACAUGAGGAUCACCCAUGUUGAGGAUCACCCAUGUAAAGGAGAAGGUUAAUUAUAAU
B26: Eterna 7637577 (Same State - Tryptophan B) (ssRNA)
RNA: GUAGCUAUCGCGGCCGCCACUAAACCGGAAACGGAACAGGAGGAUCACCCUUGUGGCGAAAGCCAUAGGACCGGGCGAUAGCUAC
B27: Eterna 6049957 (Exclusion 6) (ssRNA)
RNA: CUGAGUAGUCAGGAUAUGUGGUACAAAAGUACUGCAGAAGGGAUUACAUGAGGAUCACCCAUGUUUUCUUCAUG
B28: Eterna 6056927 (Brourd's mod of Exclusion 4) (ssRNA)
RNA: GGUCCUUCUGUUAGGAUAUGCUAUGGGCUUCCGCAGUAGAAGGAACAUGAGGAUCACCCAUGUCCGAUGCCGUA
B29: Eterna 5958224 (Same State NG 3) (ssRNA)
RNA: CGAGGCGUACAUGAGGAUCACCCAUGUACCUAACAACAAAGCAAGGAUAUCCUGGCUAUAAUACAGGAGAAGGUGUGGUCCUUA
B30: Eterna 7716236 (Same State - Tryptophan B) (ssRNA)
RNA: GCGCGGCAGGCGGCCGCCACUCUGACGAGCCACAGUGAUGUUGUGGUCGGAGAAACGUCUUCAUAGAGGACCGGGUUUGUUGUUC
B31: Eterna 7690487 (Same State - Theophylline B) (ssRNA)
RNA: UGUCAUUGGUCUGAUACCAGUUAGACCGAUAGGUCAAAACUGGAGUGAUGUUCCCAAAAUAACCCUUGGCAGCAGACCGAUGACU
B32: Eterna 7730362 (Exclusion - Arginine B) (ssRNA)
RNA: GGACUAACCAGAAGGAGCGGCGCGCAGAAACUGCUAAUUCCUCCGCACGAGGAUCACCCGUGUCAGGUAGGUCGCUGGUUAGUCG
B33: Eterna 7687680 (Same State - Theophylline A) (ssRNA)
RNA: AUUGAUAUAUAUAUUUGAUUUUUAUGUGAUACCAGACAAGGCAUAGUCCCUUGGCAGCACUUUAUAUUUACGAGUGAUGUUCGUA
B34: Eterna 6430949 (Inverted Small Loop Exclusion NG 1) (ssRNA)
RNA: GGGACCUACGAGAAGGGCUACAUGAGGAUCACCCAUGUAAAUCUUCGGGUGGCAGGAUAUCGGCGGCUACAGGAGGGCCAGGUC
B35: Eterna 6389671 (Inverted Exclusion NG 2) (ssRNA)
RNA: ACUUGUAAGUAGAAGGUAGUCAUUAUAUUAAUCAUGUAAACAUGAGGAUCACCCAUGUAGAGUACUAAGGAUAUACAUCGAUAG
B36: Eterna 6420697 (Small Loop Exclusion NG 3) (ssRNA)
RNA: AUCGUUGACUGGACGAGAAUAGGGCAGGAUAUACAUGAGGAUCACCCAUGUGAAGCACGAAAGAGGUAGAAGGGCCCACGUCAU
B37: Eterna 7682639 (Same State - Theophylline A) (ssRNA)
RNA: GAAGGUCAAAGACCUUCGUGCACAUCUGAUACCAGUCGCGAAAGCGACCCUUGGCAGCAGGGCAGUGAUGUUGCCAGUGCACAAA
B38: Eterna 7729929 (Exclusion - Tryptophan B) (ssRNA)
RNA: GGAUAGGACACGGCCGCCACUAGCUAGGAUACUAGCAACAUUUCCUCAUCUGAGGAUCACCCAGGUAGGACCGGGUGUCCUAUCG
B39: Eterna 7729660 (Same State - Arginine B) (ssRNA)
RNA: ACGAAGGAUGGAAGGAGCGCUCGUCAGUCCUGCGAGUGAUGUUCGUGGGUAAAUAGUCGCGAGCAGGUAGGUCGCCAUCUUGAGC
B40: Eterna 7753129 (Same State - Arginine B) (ssRNA)
RNA: GGGUUGAACUGAAGGAGCGAGAAAUAGAAAGUAAGAAGAUAAGCUAGUGAUGUUAGAAAUUCUCAGGUAGGUCGCAGUAAGAAUU
B41: Eterna 7690543 (Exclusion - Theophylline B) (ssRNA)
RNA: AUUUAAUUAACUGAUACCAGACUUUAUGUAUUUAUUAAAACUAGUGAUGUUAGUUUAUCUGUCCCUUGGCAGCAGUUUCUACUUA
B42: Eterna 11587 (Sensor for hsa-mir-208a) (ssRNA)
RNA: AUUUAACAAGCUUUUUGCUCGUCUUAUAAACAUGAGGAUCACCCAUGUAAUAGCGUGAGAGUAAAUAAUUUAAUAAU

biological target: MS2 coat protein, dlFG mutant (Escherichia phage MS2, UniProt P03612, del68-81insG); test: 4 mM Mg2+; no ligand; RNA-MaP array; 100 mM Tris-HCl pH 7.5, 80 mM KCl, 4 mM MgCl2, 0.1 mg/mL BSA, 1 mM DTT, 0.01 mg/mL yeast tRNA, 0.01% Tween-20; protein 1.5 nM to 3 uM; 37 C (Table S3); conditions: chain copies: 2; label: tethered by stalled RNA polymerase

Going from B1 to B2, the Kd rises from 17.2 nM to 330 nM (19-fold).

B3 and B4 cannot be ordered by Kd: greater than 3000 nM for the first, greater than 3000 nM for the second.

Going from B5 to B6, the Kd falls from 44.2 nM to 13.2 nM (3.3-fold). The second binds more tightly here.

Compared with B7, B8 is 6.9-fold higher in Kd: 17.9 nM for the first, 123 nM for the second.

Going from B9 to B10, the Kd rises from 4.99 nM to 12.7 nM (2.5-fold). The first binds more tightly here.

Going from B11 to B12, the Kd rises from 16.7 nM to 36.1 nM (2.2-fold).

Going from B13 to B14, the Kd falls from greater than 3000 nM to 32.4 nM.

Compared with B15, B16 is lower in Kd: greater than 3000 nM for the first, 9.79 nM for the second. The second binds more tightly here.

B17 and B18 cannot be ordered by Kd: greater than 3000 nM for the first, greater than 3000 nM for the second.

Going from B19 to B20, the Kd rises from 7.13 nM to greater than 3000 nM. The first binds more tightly here.

Compared with B21, B22 is lower in Kd: greater than 3000 nM for the first, 4.44 nM for the second. The second binds more tightly here.

First: B23
Second: B24
The Kd of the first is lower: 12.8 nM for the first, greater than 3000 nM for the second. The first binds more tightly here.

Going from B25 to B26, the Kd rises from 101 nM to 483 nM (4.8-fold).

B27 and B28 are within 1.5-fold of each other in Kd: 52 nM for the first, 67.5 nM for the second.

First: B29
Second: B30
The Kd of the first is lower: 135 nM for the first, greater than 3000 nM for the second. The first binds more tightly here.

First: B31
Second: B32
The Kd of the first is higher: greater than 3000 nM for the first, 10 nM for the second.

Going from B33 to B34, the Kd falls from greater than 3000 nM to 8.57 nM. The second binds more tightly here.

B35 and B36 are within 1.5-fold of each other in Kd: 15.2 nM for the first, 16.1 nM for the second.

Compared with B37, B38 is lower in Kd: greater than 3000 nM for the first, 563 nM for the second. The second binds more tightly here.

B39 and B40 cannot be ordered by Kd: greater than 3000 nM for the first, greater than 3000 nM for the second.

Going from B41 to B42, the Kd falls from greater than 3000 nM to 11.3 nM. The second binds more tightly here.
